T1: human CTLA4 protein (human, UniProt P16410 37-162, limits assumed)
T1 construct: bought protein coated on the ELISA plate; also called human CTLA4 antigen
T1 sequence (looked up): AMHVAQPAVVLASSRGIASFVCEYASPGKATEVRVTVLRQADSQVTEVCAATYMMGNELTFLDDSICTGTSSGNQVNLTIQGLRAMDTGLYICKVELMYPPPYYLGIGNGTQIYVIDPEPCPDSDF


Assays:
[1] = target: PD-L1 on TCR activator PD-L1-CHO cells (UniProt Q9NZQ7 19-290, limits assumed); assay: cell-based or functional assay
human CD28 protein = target: T2, human CD28 protein (human, UniProt P10747 19-152); assay: ELISA, plate-coated human CD28; set-up: binding strength @ 100nM: reference not given here
T2 construct: bought protein coated on the ELISA plate; also called human CD28 antigen

human CTLA4 protein = target: T1, human CTLA4 protein; assay: ELISA, plate-coated human CTLA4

T2 sequence (P10747 19-152 limits assumed): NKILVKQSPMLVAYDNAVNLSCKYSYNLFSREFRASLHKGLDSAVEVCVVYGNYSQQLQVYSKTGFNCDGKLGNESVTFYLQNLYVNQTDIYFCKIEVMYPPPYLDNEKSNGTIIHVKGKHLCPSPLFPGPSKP
PD-L1 on TCR activator PD-L1-CHO cells, sequence (Q9NZQ7 19-290 limits assumed): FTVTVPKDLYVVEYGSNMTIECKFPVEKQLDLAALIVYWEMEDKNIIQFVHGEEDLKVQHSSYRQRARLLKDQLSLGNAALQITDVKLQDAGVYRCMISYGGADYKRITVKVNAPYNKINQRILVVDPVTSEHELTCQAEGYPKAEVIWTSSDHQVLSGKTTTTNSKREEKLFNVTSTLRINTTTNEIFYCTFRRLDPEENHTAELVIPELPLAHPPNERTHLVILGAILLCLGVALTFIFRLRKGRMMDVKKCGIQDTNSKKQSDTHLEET

Row | EC50(nM), Jurkat-NFAT-Luc/CHO-PDL1 [1] | The highest induction relative to 10 nM sugemalimab [1] | EC50 (human CD28 protein) | binding strength @ 100nM (human CD28 protein) | EC50 (human CTLA4 protein) | binding strength @ 20nM (human CTLA4 protein) | binding result (human CTLA4 protein) | Binder
1 | 1.84 nM | 113% | 27.7 nM | 700% | 26.5 nM | 640% | – | Abs-367 (other, the paragraph that names the antibody is followed; also called CD80 IgV mutant E35T/A71Q-sugemalimab fusion) heavy: VIHVTKEVKEVATLSCGHNVSVEELAQTRIYWQKTKKMVLTMMSGDMNIWPEYKNRTIFDITNNLSIVILQLRPSDEGTYECVVLKYEKDAFKREHLAEVTLSVKADGGGGSGGGGSGGGGSGGGGSGEVQLLESGGGLVQPGGSLRLSCAASGFTFSSYAMSWVRQAPGKGLEWVSGISGSGGFTYYADSVKGRFTISRDNSKNTLYLQMNSLRAEDTAVYYCAKPPRGYNYGPFDYWGQGTLVTVSSASTKGPSVFPLAPCSRSTSESTAALGCLVKDYFPEPVTVSWNSGALTSGVHTFPAVLQSSGLYSLSSVVTVPSSSLGTKTYTCNVDHKPSNTKVDKRVESKYGPPCPPCPAPEFLGGPSVFLFPPKPKDTLMISRTPEVTCVVVDVSQEDPEVQFNWYVDGVEVHNAKTKPREEQFNSTYRVVSVLAVLHQDWLNGKEYKCKVSNKGLPSSIEKTISKAKGQPREPQVYTLPPSQEEMTKNQVSLTCLVKGFYPSDIAVAWESNGQPENNYKTTPPVLDSDGSFFLYSRLTVDKSRWQEGNVFSCSVMHEALHAHYTQKSLSLSLGK light: SYVLTQPPSVSVAPGQTARITCGGNNIGSKSVHWYQQKPGQAPVLVVYDDSDRPSGIPERFSGSNSGNTATLTISRVEAGDEADYYCQVWDSSSDHVVFGGGTKLTVLGQPKAAPSVTLFPPSSEELQANKATLVCLISDFYPGAVTVAWKADSSPVKAGVETTTPSKQSNNKYAASSYLSLTPEQWKSHRSYSCQVTHEGSTVEKTVAPTECS
2 | 0.52 nM | 138% | 28.7 nM | 700% | – | – | no binding | Abs-368 (other, the paragraph that names the antibody is followed; also called CD80 IgV mutant E35T/A71T-sugemalimab fusion) heavy: VIHVTKEVKEVATLSCGHNVSVEELAQTRIYWQKTKKMVLTMMSGDMNIWPEYKNRTIFDITNNLSIVILTLRPSDEGTYECVVLKYEKDAFKREHLAEVTLSVKADGGGGSGGGGSGGGGSGGGGSGEVQLLESGGGLVQPGGSLRLSCAASGFTFSSYAMSWVRQAPGKGLEWVSGISGSGGFTYYADSVKGRFTISRDNSKNTLYLQMNSLRAEDTAVYYCAKPPRGYNYGPFDYWGQGTLVTVSSASTKGPSVFPLAPCSRSTSESTAALGCLVKDYFPEPVTVSWNSGALTSGVHTFPAVLQSSGLYSLSSVVTVPSSSLGTKTYTCNVDHKPSNTKVDKRVESKYGPPCPPCPAPEFLGGPSVFLFPPKPKDTLMISRTPEVTCVVVDVSQEDPEVQFNWYVDGVEVHNAKTKPREEQFNSTYRVVSVLAVLHQDWLNGKEYKCKVSNKGLPSSIEKTISKAKGQPREPQVYTLPPSQEEMTKNQVSLTCLVKGFYPSDIAVAWESNGQPENNYKTTPPVLDSDGSFFLYSRLTVDKSRWQEGNVFSCSVMHEALHAHYTQKSLSLSLGK light: SYVLTQPPSVSVAPGQTARITCGGNNIGSKSVHWYQQKPGQAPVLVVYDDSDRPSGIPERFSGSNSGNTATLTISRVEAGDEADYYCQVWDSSSDHVVFGGGTKLTVLGQPKAAPSVTLFPPSSEELQANKATLVCLISDFYPGAVTVAWKADSSPVKAGVETTTPSKQSNNKYAASSYLSLTPEQWKSHRSYSCQVTHEGSTVEKTVAPTECS

Source: EP4538286A1 (Adlai Nortye Biopharma Co., Ltd., dated 2025)
